From patent publication US20180362604A1 (SHIRE HUMAN GENETIC THERAPIES, published 2018) come the findings set out here.

Experiment [1] addresses T1, Myostatin (UniProt O14793 267-375).
T1 construct: bought protein; also called GDF-8; MST
T1 sequence (looked up): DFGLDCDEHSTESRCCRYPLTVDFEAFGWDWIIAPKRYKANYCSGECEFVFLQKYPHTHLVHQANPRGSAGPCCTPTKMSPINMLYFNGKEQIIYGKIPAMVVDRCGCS
As to the kind of experiment: SPR (BIAcore), myostatin as analyte. Background: SPR reads the build-up and loss of mass on a sensor chip optically.

Experiment [2] deals with T2, Activin A (UniProt P08476 311-426).
T2 sequence (looked up): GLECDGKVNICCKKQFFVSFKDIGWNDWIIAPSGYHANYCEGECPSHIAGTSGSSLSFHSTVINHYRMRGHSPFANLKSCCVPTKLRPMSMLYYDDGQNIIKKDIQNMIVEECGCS
As to the kind of experiment: cell-based or functional assay.

Experiment [3] concerns the target T1, Myostatin. The experiment in a line: cell-based or functional assay.
For experiment [4], the target named is T2, Activin A. As to the kind of experiment: surface plasmon resonance.
Experiment [5] has as its target T1, Myostatin. The experiment in a line: surface plasmon resonance.

B1: FS315K(76,81,82)E-mFc (Fc fusion)
chain: GNCWLRQAKNGRCQVLYKTELSKEECCSTGRLSTSWTEEDVNDNTLFKWMIFNGGAPNCIPCKETCENVDCGPGKECRMNEENKPRCVCAPDCSNITWKGPVCGLDGKTYRNECALLKARCKEQPELEVQYQGRCKKTCRDVFCPGSSTCVVDQTNNAYCVTCNRICPEPASSEQYLCGNDGVTYSSACHLRKATCLLGRSIGLAYEGKCIKAKSCEDIQCTGGKKCLWDFKVGRGRCSLCDELCPDSKSDEPVCASDNATYASECAMKEAACSSGVLLEVKHSGSCNSISEDTEEEEEDEDQDYSFPISSILEW
notes: K76, K81, K82 to glutamic acid, fused with murine Fc; also called FS-EEE-mFc; not shown: murine Fc (mFc)
In the case of B1, the Kd – broadly, the free concentration of one partner at which half of the binding sites on the other are occupied at equilibrium, for simple one-to-one binding – in experiment [1] is 0.0148 nM; in experiment [4] it was 0.0061 nM; in experiment [5], 0.0075 nM. Also, the “Activin A IC50, cell-based assay for SMAD pathway (A204 luciferase reporter)” value in experiment [2] was 0.8 nM. In addition, the “Myostatin IC50, cell-based assay for SMAD pathway (A204 luciferase reporter)” value in experiment [3] came out at 0.7 nM.

B2: ActRIIB-Fc (Fc fusion, UniProt Q13705 19-134, looked up, not shown: a dimerising Fc or GST)
chain: SGRGEAETRECIYYNANWELERTNQSGLERCEGEQDKRLHCYASWRNSSGTIELVKKGCWLDDFNCYDRQECVATEENPQVYFCCCEGNFCNERFTHLPEAGGPEVTYEPPPTAPT
Take B2: the “Activin A IC50, cell-based assay for SMAD pathway (A204 luciferase reporter)” value in experiment [2] was 0.5 nM. Further, the “Myostatin IC50, cell-based assay for SMAD pathway (A204 luciferase reporter)” value in experiment [3] stood at 0.5 nM.
